# Test results from patent US20260232827A1 (Zymeworks, published 2026).
# T1: Full length human NaPi2b (sodium-dependent phosphate transporter 2B, SLC34A2) (human, UniProt O95436 1-690)
# T1 construct: also called huNaPi2b; CL_#13432
# T1 sequence: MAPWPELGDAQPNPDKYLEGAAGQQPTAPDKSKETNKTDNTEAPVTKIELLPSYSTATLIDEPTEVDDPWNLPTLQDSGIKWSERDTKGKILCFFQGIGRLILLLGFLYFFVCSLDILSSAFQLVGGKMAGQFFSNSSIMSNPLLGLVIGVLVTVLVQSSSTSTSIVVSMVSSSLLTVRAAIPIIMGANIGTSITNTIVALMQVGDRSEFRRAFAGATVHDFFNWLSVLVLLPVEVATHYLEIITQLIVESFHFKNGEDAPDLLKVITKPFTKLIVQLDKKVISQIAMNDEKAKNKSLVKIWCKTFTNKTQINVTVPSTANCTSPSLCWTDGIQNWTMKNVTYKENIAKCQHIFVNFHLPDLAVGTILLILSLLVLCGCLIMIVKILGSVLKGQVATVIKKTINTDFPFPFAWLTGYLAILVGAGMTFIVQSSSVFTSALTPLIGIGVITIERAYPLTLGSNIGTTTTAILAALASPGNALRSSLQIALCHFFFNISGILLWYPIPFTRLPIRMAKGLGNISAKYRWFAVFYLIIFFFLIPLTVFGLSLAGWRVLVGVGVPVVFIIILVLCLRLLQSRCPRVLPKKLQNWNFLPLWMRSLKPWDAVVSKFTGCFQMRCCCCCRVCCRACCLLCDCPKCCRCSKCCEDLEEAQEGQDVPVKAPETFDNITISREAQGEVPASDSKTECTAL
# T2: Construct 7 (human NaPi2b del 317-326) (human, UniProt O95436 1-690)
# T2 construct: also called CL_#29921
# T2 sequence: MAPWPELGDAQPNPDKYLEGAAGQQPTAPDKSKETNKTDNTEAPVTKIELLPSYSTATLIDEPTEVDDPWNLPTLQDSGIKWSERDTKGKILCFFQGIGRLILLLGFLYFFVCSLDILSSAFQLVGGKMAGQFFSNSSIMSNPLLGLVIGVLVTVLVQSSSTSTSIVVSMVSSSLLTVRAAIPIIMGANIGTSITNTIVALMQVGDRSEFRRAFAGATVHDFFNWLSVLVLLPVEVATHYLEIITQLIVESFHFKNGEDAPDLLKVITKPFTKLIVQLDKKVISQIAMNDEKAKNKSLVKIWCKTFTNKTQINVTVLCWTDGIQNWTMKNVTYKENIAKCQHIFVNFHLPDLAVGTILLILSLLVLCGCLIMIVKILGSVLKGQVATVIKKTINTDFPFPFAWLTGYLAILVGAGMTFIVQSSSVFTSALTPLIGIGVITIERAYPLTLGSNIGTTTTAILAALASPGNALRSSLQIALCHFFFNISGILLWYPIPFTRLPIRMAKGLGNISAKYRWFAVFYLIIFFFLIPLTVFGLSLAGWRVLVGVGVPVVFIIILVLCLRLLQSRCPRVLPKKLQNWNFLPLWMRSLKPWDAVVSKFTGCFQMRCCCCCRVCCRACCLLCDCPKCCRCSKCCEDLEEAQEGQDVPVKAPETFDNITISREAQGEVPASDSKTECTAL
# Columns and labels:
# [1] = target: T1, Full length human NaPi2b …; test: flow cytometry, transfected HEK293-6e cells, antibody 20 nM
# [2] = target: T3, Construct 1 (chimeric human NaPi2b, swap in NaPi2c in 239-259) (human); test: as above
# T3 construct: also called CL_#29914
# [3] = target: T4, Construct 2 (chimeric human NaPi2b, swap in NaPi2c in 280-301) (human); test: as above
# T4 construct: also called CL_#29915
# [4] = target: T5, Construct 4 (chimeric human NaPi2b, swap in NaPi2c in 341-358) (human); test: as above
# T5 construct: also called CL_#13435
# [5] = target: T2, Construct 7 (human NaPi2b del 317-326); test: flow cytometry, transfected HEK293-6e cells, antibody 200 nM;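 further: cells incubated with antibody for 24 h at 4 °C, background taken as average MFI of unstained cells without primary antibody, at least 1,000 events per well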
# [6] = target: T3, Construct 1 (chimeric human NaPi2b, …); test: as above
Binder,Background-Subtracted AF647 Mean Fluorescence Intensity [1] [MFI],Background-Subtracted AF647 Mean Fluorescence Intensity [2] [MFI],Background-Subtracted AF647 Mean Fluorescence Intensity [3] [MFI],Background-Subtracted AF647 Mean Fluorescence Intensity [4] [MFI],Background-Subtracted AF647 Mean Fluorescence Intensity [5] [MFI],Background-Subtracted AF647 Mean Fluorescence Intensity [6] [MFI]
"palivizumab (v21995), anti-RSV antibody, negative control (antibody, human IgG1, kappa, V domains shown) VH: QVTLRESGPALVKPTQTLTLTCTFSGFSLSTSGMSVGWIRQPPGKALEWLADIWWDDKKDYNPSLKSRLTISKDTSKNQVVLKVTNMDPADTATYYCARSMITNWYFDVWGAGTTVTVSS VL: DIQMTQSPSTLSASVGDRVTITCKSQLSVGYMHWYQQKPGKAPKLLIYDTSKLASGVPSRFSGSGSGTEFTLTISSLQPDDFATYYCFQGSGYPFTFGGGTKLEIKR",13,-27,-64,22,-97,12
"lifastuzumab (v18993), reference anti-NaPi2b antibody (antibody, human IgG1, kappa) heavy 1: GEVQLVESGGGLVQPGGSLRLSCAASGFSFSDFAMSWVRQAPGKGLEWVATIGRVAFHTYYPDSMKGRFTISRDNSKNTLYLQMNSLRAEDTAVYYCARHRGFDVGHFDFWGQGTLVTVSSASTKGPSVFPLAPSSKSTSGGTAALGCLVKDYFPEPVTVSWNSGALTSGVHTFPAVLQSSGLYSLSSVVTVPSSSLGTQTYICNVNHKPSNTKVDKKVEPKSCDKTHTCPPCPAPELLGGPSVFLFPPKPKDTLMISRTPEVTCVVVDVSHEDPEVKFNWYVDGVEVHNAKTKPREEQYNSTYRVVSVLTVLHQDWLNGKEYKCKVSNKALPAPIEKTISKAKGQPREPQVYVYPPSRDELTKNQVSLTCLVKGFYPSDIAVEWESNGQPENNYKTTPPVLDSDGSFALVSKLTVDKSRWQQGNVFSCSVMHEALHNHYTQKSLSLSPG heavy 2: not shown light: GDIQMTQSPSSLSASVGDRVTITCRSSETLVHSSGNTYLEWYQQKPGKAPKLLIYRVSNRFSGVPSRFSGSGSGTDFTLTISSLQPEDFATYYCFQGSFNPLTFGQGTKVEIKRTVAAPSVFIFPPSDEQLKSGTASVVCLLNNFYPREAKVQWKVDNALQSGNSQESVTEQDSKDSTYSLSSTLTLSKADYEKHKVYACEVTHQGLSSPVTKSFNRGEC",1370,1700,1200,1050,21,1510
